Data reported in US20250197870A1, “RECOMBINANT E. COLI STRAIN PRODUCING 1,3-BUTANEDIOL FROM GLUCOSE AND METHOD FOR PRODUCING 1,3-BUTANEDIOL USING SAME” (ActivON Co.,Ltd., priority 2022, published 2025).

Test: Activity of purely isolated 3-HBA reductases (alcohol dehydrogenases) for 3-HBA
Type: biochemical
Conditions: pure enzyme, substrate 3-HBA
Experimental: The activity of alcohol dehydrogenase was determined by photometric monitoring of the increase/decrease in NADP+/NADPH at 340 nm. The reaction mixture included 50 mM Tris-HCl at pH 7.0. For measurement of forward reactions, preparation was followed to include 0.15 mM NADPH and 5 mM 3-hydroxybutyraldehyde as substrates at 37° C. For reverse reactions, 2 mM NADP+ and 30 mM 1,3-BDO were used as cofactors and substrates, respectively. For the reduction reaction, 1 unit of enzymatic activity was defined as the amount of enzyme required to oxidize 1 μmol of NAD(P)H to NADP+ for 1 minute. For oxidation reactions, 1 unit of enzymatic activity was defined as the amount of enzyme required to reduce 1 μmol of NAD(P)+ to NAD(P)H for 1 minute.
Previously, 4 types of enzymes such as Cs_bdh, Ec_yqhD, Kp_dhaT, and Lr_pduQ were tested with 3-HBA reductase (FIG. 3), of which yqhD showing the best performance was used. However, the constant accumulation of 3-HBA and 3-HB indicates a lack of activity in these enzymes. Four aldoketoreductases (AKRs) were tested to improve the conversion from 3-HBA to 1,3-BDO. Two of the selected AKRs were derived from P. denitrificans, one derived from P. putida, and the other from P. aeruginosa. In addition, ygjB and yahK, also known as E. coli-derived alcohol dehydrogenase (ADH), were tested. Thereamong, enzymes coded by ygjB have been reported to have high activity for various aldehydes, especially high activity for butyraldehyde (kcat/Km, 221 sec-1 mM-1), while the enzyme coded by yahK has also been reported to have high activity for various aldehydes, especially high activity for butyraldehyde (kcat/Km, 19.8 sec-1 mM-1). Several ADH genes were cloned into E. coli, mass-produced, isolated and purified, and then tested for the activity of pure enzymes for 3-HBA.

Molecule	Purely isolated enzymatic activity
YqhD: 3-hydroxybutyraldehyde reductase (E. coli), SEQ ID NO: 34 gene product (protein, UniProt Q46856 1-387, looked up) NADPH-dependent aldehyde …: MNNFNLHTPTRILFGKGAIAGLREQIPHDARVLITYGGGSVKKTGVLDQVLDALKGMDVLEFGGIEPNPAYETLMNAVKLVREQKVTFLLAVGGGSVLDGTKFIAAAANYPENIDPWHILQTGGKEIKSAIPMGCVLTLPATGSESNAGAVISRKTTGDKQAFHSAHVQPVFAVLDPVYTYTLPPRQVANGVVDAFVHTVEQYVTKPVDAKIQDRFAEGILLTLIEDGPKALKEPENYDVRANVMWAATQALNGLIGAGVPQDWATHMLGHELTAMHGLDHAQTLAIVLPALWNEKRDTKRAKLLQYAERVWNITEGSDDERIDAAIAATRNFFEQLGVPTHLSDYGLDGSSIPALLKKLEEHGMTQLGENHDITLDVSRRIYEAAR	0.06 U/mg protein
YahK: E. coli-derived alcohol dehydrogenase, 3-hydroxybutyraldehyde reductase, SEQ ID NO: 36 gene product (protein, listed as Escherichia coli) MKIKAVGAYSAKQPLEPMDITRREPGPNDVKIEIAYCGVCHSDLHQVRSEWAGTVYPCVPGHEIVGRVVAVGDQVEKYAPGDLVGVGCIVDSCKHCEECEDGLENYCDHMTGTYNSPTPDEPGHTLGGYSQQIVVHERYVLRIRHPQEQLAAVAPLLCAGITTYSPLRHWQAGPGKKVGVVGIGGLGHMGIKLAHAMGAHVVAFTTSEAKREAAKALGADEVVNSRNADEMAAHLKSFDFILNTVAAPHNLDDFTTLLKRDGTMTLVGAPATPHKSPEVFNLIMKRRAIAGSMIGGIPETQEMLDFCAEHGIVADIEMIRADQINEAYERMLRGDVKYRFVIDNRTLTD	6.98 U/mg protein
DhaT: alcohol dehydrogenase from K. pneumoniae (protein, UniProt Q59477 1-387, looked up) 1,3-propanediol dehydrogenase: MSYRMFDYLVPNVNFFGPNAISVVGERCQLLGGKKALLVTDKGLRAIKDGAVDKTLHYLREAGIEVAIFDGVEPNPKDTNVRDGLAVFRREQCDIIVTVGGGSPHDCGKGIGIAATHEGDLYQYAGIETLTNPLPPIVAVNTTAGTASEVTRHCVLTNTETKVKFVIVSWRNLPSVSINDPLLMIGKPAALTAATGMDALTHAVEAYISKDANPVTDAAAMQAIRLIARNLRQAVALGSNLQARENMAYASLLAGMAFNNANLGYVHAMAHQLGGLYDMPHGVANAVLLPHVARYNLIANPEKFADIAELMGENITGLSTLDAAEKAIAAITRLSMDIGIPQHLRDLGVKEADFPYMAEMALKDGNAFSNPRKGNEQEIAAIFRQAF	0.44 U/mg protein
YgjB (Ahr): E. coli-derived alcohol dehydrogenase, 3-hydroxybutyraldehyde reductase, SEQ ID NO: 35 gene product (protein, listed as Escherichia coli) MSMIKSYAAKEAGGELEVYEYDPGELRPQDVEVQVDYCGICHSDLSMIDNEWGFSQYPLVAGHEVIGRVVALGSAAQDKGLQVGQRVGIGWTARSCGHCDACISGNQINCEQGAVPTIMNRGGFAEKLRADWQWVIPLPENIDIESAGPLLCGGITVFKPLLMHHITATSRVGVIGIGGLGHIAIKLLHAMGCEVTAFSSNPAKEQEVLAMGADKVVNSRDPQALKALAGQFDLIINTVNVSLDWQPYFEALTYGGNFHTVGAVLTPLSVPAFTLIAGDRSVSGSATGTPYELRKLMRFAARSKVAPTTELFPMSKINDAIQHVRDGKARYRVVLKADF	238 U/mg protein
